The source of these data is PMC3477590.

The target of assay [1] is CFP-RBX1-CUL1^CTD (human) (UniProt P62877). The experiment in a line: FRET or BRET.
The target of the next assay is CFP-RBX1^RING (human) (UniProt P62877). As to the kind of experiment: FRET or BRET.
In a further assay the target is CFP-RBX1-CUL1^CTD~NEDD8 (UniProt P62877). As to the kind of experiment: FRET or BRET.
For assay [2], the target named is cellular RBX1 (Fig. S7) (human) (UniProt P62877).
Chain of cellular RBX1 (Fig. S7) (human) (P62877 whole entry): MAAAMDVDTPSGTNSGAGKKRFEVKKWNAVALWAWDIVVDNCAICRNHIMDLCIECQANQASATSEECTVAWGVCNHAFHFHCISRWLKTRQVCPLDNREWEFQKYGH

Chain of GLMN-YFP (Q92990 whole entry): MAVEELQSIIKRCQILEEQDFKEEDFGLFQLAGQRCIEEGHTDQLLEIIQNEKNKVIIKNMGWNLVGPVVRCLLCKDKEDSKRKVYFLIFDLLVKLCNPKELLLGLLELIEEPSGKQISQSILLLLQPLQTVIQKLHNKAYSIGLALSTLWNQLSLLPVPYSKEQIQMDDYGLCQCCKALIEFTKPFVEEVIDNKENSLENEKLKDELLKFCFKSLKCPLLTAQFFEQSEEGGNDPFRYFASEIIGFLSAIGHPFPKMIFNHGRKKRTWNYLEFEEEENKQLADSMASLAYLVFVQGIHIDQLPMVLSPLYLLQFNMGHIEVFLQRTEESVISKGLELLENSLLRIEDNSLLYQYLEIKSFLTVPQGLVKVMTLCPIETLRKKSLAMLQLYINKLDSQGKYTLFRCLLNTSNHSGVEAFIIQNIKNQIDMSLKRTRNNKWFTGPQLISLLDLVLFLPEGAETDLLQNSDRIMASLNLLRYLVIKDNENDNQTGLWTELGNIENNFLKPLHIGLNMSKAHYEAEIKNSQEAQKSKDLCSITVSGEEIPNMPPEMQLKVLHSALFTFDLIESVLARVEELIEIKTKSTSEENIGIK
Chain of GLMN in cells (Fig. S7) (Q92990 whole entry): as above
Chain of CFP-RBX1-CUL1^CTD (human) (P62877 whole entry, chain 1 of 2): as the sequence (P62877 whole entry) above
Chain of CFP-RBX1-CUL1^CTD (human) (Q13616 411-776, chain 2 of 2, further chain): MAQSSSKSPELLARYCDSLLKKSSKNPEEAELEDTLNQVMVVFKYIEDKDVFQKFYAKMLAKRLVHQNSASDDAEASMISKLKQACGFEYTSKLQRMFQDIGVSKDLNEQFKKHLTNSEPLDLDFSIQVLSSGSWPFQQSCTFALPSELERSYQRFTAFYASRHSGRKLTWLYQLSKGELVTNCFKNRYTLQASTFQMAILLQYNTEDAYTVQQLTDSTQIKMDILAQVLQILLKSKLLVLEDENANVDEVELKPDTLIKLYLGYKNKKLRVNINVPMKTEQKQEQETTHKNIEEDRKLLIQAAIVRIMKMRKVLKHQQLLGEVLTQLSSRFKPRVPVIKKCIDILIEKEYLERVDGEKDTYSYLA
Chain of CFP-RBX1-CUL1^CTD~NEDD8 (P62877 whole entry, chain 1 of 3): as the sequence (P62877 whole entry) above
Chain of CFP-RBX1-CUL1^CTD~NEDD8 (Q13616 411-776, chain 2 of 3, further chain): as the sequence (Q13616 411-776, chain 2 of 2, further chain) above
Chain of CFP-RBX1-CUL1^CTD~NEDD8 (Q15843 1-76, chain 3 of 3, further chain): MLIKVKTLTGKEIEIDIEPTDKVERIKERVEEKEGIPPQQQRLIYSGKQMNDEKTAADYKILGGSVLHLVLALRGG
Chain of CFP-RBX1^RING (human) (P62877 whole entry): as the sequence (P62877 whole entry) above

Regarding “GLMN-YFP (from UniProt Q92990 1-594) (natural protein)”, the Kd in assay [1] worked out at 36 nM; in the assay with CFP-RBX1^RING (human) it was 45 nM; with CFP-RBX1-CUL1^CTD~NEDD8, 28 nM.

As to “GLMN in cells (Fig. S7) (from UniProt Q92990 1-594) (natural protein)”, the percent of cellular RBX1 bound by GLMN in assay [2] was 7 percent.
